These results are taken from US20220195023A1.

B1: AB-000317 (antibody, V domains shown)
VH: QMQLVESGGGVVQPGRSLRLSCTASGFTFSTYAMHWVRQSPGQGLQWVAVISYHSTNKYYEDSVRGRFTISRDNSKNTLYLQMNSLRAEDTAVYYCARDGYSSSFFDFWGQGTLVTVSS
VL: DIQMTQSPSTLSASVGDRVAITCRASQSISRWLAWYQQQPGKAPKLLMSGASVLESGVPSRFSGSGSGTEFTLTISSLQPDDFATYYCQHYNSYFVTFGQGTKVEIK
B2: AB-007028 (antibody, V domains shown)
VH: B1 VH with T23A, S40A
VL: B1 VL with A20T
B3: AB-007029 (antibody, V domains shown)
VH: B1 VH with M2V
VL: B1 VL
B4: AB-007070 (antibody, V domains shown)
VH: B1 VH
VL: B1 VL with G50A
B5: AB-007061 (antibody, V domains shown)
VH: B1 VH
VL: B1 VL with S30D
B6: AB-007072 (antibody, V domains shown)
VH: B1 VH
VL: B1 VL with V53N
B7: AB-007056 (antibody, V domains shown)
VH: B1 VH with S102Q
VL: B1 VL
B8: AB-007065 (antibody, V domains shown)
VH: B1 VH
VL: B1 VL with G50K
B9: AB-007063 (antibody, V domains shown)
VH: B1 VH
VL: B1 VL with S49A
B10: AB-007062 (antibody, V domains shown)
VH: B1 VH
VL: B1 VL with R31S
B11: AB-007074 (antibody, V domains shown)
VH: B1 VH with T23A, S40A
VL: B1 VL with A20T, F95Y
B12: AB-007071 (antibody, V domains shown)
VH: B1 VH
VL: B1 VL with V53S
B13: AB-007073 (antibody, V domains shown)
VH: B1 VH
VL: B1 VL with Y94H
B14: AB-007059 (antibody, V domains shown)
VH: B1 VH with S104T
VL: B1 VL
B15: AB-007031 (antibody, V domains shown)
VH: B1 VH
VL: B1 VL with M48I
B16: AB-007068 (antibody, V domains shown)
VH: B1 VH
VL: B1 VL with G50L
B17: AB-007032 (antibody, V domains shown)
VH: B1 VH with M2V, T23A, S40A
VL: B1 VL with A20T, M48I
B18: AB-007030 (antibody, V domains shown)
VH: B1 VH with Q46E, E61A
VL: B1 VL

Changes are numbered by the printed parent chain. Where “and” joins values, the source holds several entries; their conditions need not be identical. Equal values may be shown once.

One test addresses … (Plasmodium falciparum). The experiment in a line: BLI, target on sensor. In general terms: Biolayer interferometry detects binding as a change in optical thickness at a sensor tip.
One may read the Kd as the free concentration of one partner at which half of the binding sites on the other are occupied at equilibrium, for simple one-to-one binding. High values mean weaker binding, low ones tighter binding. Regarding B1, the equilibrium dissociation constant (Kd) is 2.76 nM and 2.51 nM.
Consider B2, for which the Kd came to 2.93 nM.
As to B3, the Kd came out at 5.62 nM.
For the molecule B4, the Kd was 15.5 nM.
The molecule B5 displayed a Kd of 4.11 nM.
In turn, B6 gave a dissociation constant (Kd) of 15.5 nM.
As to B7, the Kd was determined as 23.6 nM.
Molecule B8 registered a Kd of 9.73 nM.
Still for that read-out and setting: the value for B9 was 7.03 nM.
Take B10: the Kd is 14.3 nM.
Consider B11, for which the equilibrium dissociation constant (Kd) is 6.05 nM.
Take B12: the Kd is 10.4 nM.
In the case of B13, the Kd came to 17.9 nM.
B14: the dissociation constant (Kd) was 17.4 nM.
B15: the Kd amounted to 2.89 nM.
B16 showed an equilibrium dissociation constant (Kd) of 18.3 nM.
As to B17, the Kd amounted to 6.42 nM.
B18 displayed a Kd of 2.84 nM.

A further test addresses (NVDP)3(NANP)2 (Plasmodium falciparum). The experiment in a line: BLI, target on sensor.
With B1, the Kd is 4.27 nM and 3.73 nM.
On the same count and under the same terms, the value for B2 was 4.26 nM.
B3 displayed a Kd of 6.67 nM.
The molecule B4 displayed a Kd of 14.4 nM.
The molecule B5 came in with a dissociation constant (Kd) of 5.68 nM.
B6: the equilibrium dissociation constant (Kd) worked out at 14.5 nM.
On to B7, for which the dissociation constant (Kd) was 24.9 nM.
With B8, the Kd is 9.71 nM.
Still for that read-out and setting: then B9, with 9.73 nM.
On to B10, for which the dissociation constant (Kd) came out at 13.6 nM.
In turn, B11 registered a Kd of 7.96 nM.
B12 yielded a Kd of 11 nM.
B13 returned a Kd of 18.1 nM.
On to B14, for which the Kd stood at 19.8 nM.
On to B15, for which the Kd amounted to 3.5 nM.
With B16, the Kd is 17.1 nM.
The molecule B17 gave a dissociation constant Kd of 6.68 nM.
Regarding B18, the Kd stood at 4.03 nM.

In a further test the target is NANPNVDP (Plasmodium falciparum). The experiment in a line: BLI, target on sensor.
In the case of B1, the equilibrium dissociation constant (Kd) is 9.2 nM and 12.7 nM.
As to B2, the equilibrium dissociation constant (Kd) was found to be 9.18 nM.
In turn, B3 gave a dissociation constant Kd of 13.2 nM.
Take B4: the Kd came to 19.8 nM.
As to B5, the Kd worked out at 12.3 nM.
B6 returned an equilibrium dissociation constant (Kd) of 16.9 nM.
Consider B7, for which the Kd came out at 29.6 nM.
On to B8, for which the Kd was determined as 15.8 nM.
Regarding B9, the Kd was 13.1 nM.
As to B10, the Kd came to 22.4 nM.
Turning to B11, the Kd was 10.2 nM.
The molecule B12 displayed a dissociation constant Kd of 12.9 nM.
Consider B13, for which the equilibrium dissociation constant (Kd) is 20.3 nM.
Take B14: the Kd is 25.8 nM.
Still for that read-out and setting: then B15, with 7.02 nM; and B16, with 21.8 nM; and B17, with 13.9 nM.
As for B18, the Kd worked out at 7.92 nM.

For a further test, the target named is (NANP)6 (Plasmodium falciparum). In words: BLI, target on sensor.
As to B1, the dissociation constant (Kd) was 0.714 nM and 1.38 nM.
B2 returned a dissociation constant (Kd) of 0.501 nM.
The molecule B3 gave a Kd of 0.803 nM.
Molecule B4 showed a Kd of 0.834 nM.
The molecule B5 gave a dissociation constant (Kd) of 0.385 nM.
On the same count and under the same terms, the value for B6 was 1.65 nM; that for B7 was 0.88 nM.
In the case of B8, the dissociation constant Kd worked out at 0.729 nM.
The molecule B9 showed a Kd of 1.64 nM.
Regarding B10, the equilibrium dissociation constant (Kd) came out at 0.607 nM.
On to B11, for which the Kd was 0.601 nM.
B12: the dissociation constant Kd was 1.66 nM.
Turning to B13, the Kd came out at 0.627 nM.
B14 came in with a Kd of 1.41 nM.
Still for that read-out and setting: then B15, with 0.0569 nM; and B16, with 1.59 nM.
For the molecule B17, the Kd amounted to 0.338 nM.
Turning to B18, the Kd came to 0.526 nM.

The next test deals with (NPNA)3 (Plasmodium falciparum). In words: BLI, target on sensor.
Turning to B1, the Kd was 0.18 nM and 0.8 nM.
For the molecule B2, the dissociation constant (Kd) is 0.0413 nM.
With B3, the equilibrium dissociation constant (Kd) stood at 0.166 nM.
Consider B4, for which the Kd stood at 0.68 nM.
For B5, the equilibrium dissociation constant (Kd) worked out at 0.00376 nM.
B6 gave a Kd of 0.842 nM.
Regarding B7, the Kd was determined as 0.263 nM.
B8 yielded a Kd of 2.23 nM.
B9 yielded a Kd of 0.691 nM.
In the case of B10, the Kd is 0.00796 nM.
On to B11, for which the dissociation constant Kd was 0.206 nM.
Take B12: the Kd worked out at 0.694 nM.
Regarding B13, the dissociation constant (Kd) stood at 0.326 nM.
The same measure, in the same setting: then B14, with 0.478 nM; and B15, with 0.003 nM; and B16, with 0.703 nM.
In turn, B17 returned a Kd of 0.169 nM.
Consider B18, for which the Kd was determined as 0.192 nM.

The next test has as its target … (Plasmodium falciparum). In words: SPR, antibody on chip.
On to B1, for which the Kd was 12900 nM and 15800 nM.
In the case of B2, the Kd amounted to 15900 nM.
Consider B3, for which the Kd turned out to be 26200 nM.
On the same count and under the same terms, then B4, with 65300 nM; and B5, with 14600 nM; and B6, with 38700 nM.
B9: the Kd amounted to 12200 nM.
With B10, the equilibrium dissociation constant (Kd) is 25000 nM.
With B11, the equilibrium dissociation constant (Kd) came to 12800 nM.
Consider B12, for which the Kd is 23800 nM.
Same read-out and setting: then B13, with 16500 nM; and B15, with 5210 nM.
In turn, B17 yielded a Kd of 4830 nM.
B18 had a Kd of 6520 nM.

The next test deals with (NVDP)3(NANP)2 (Plasmodium falciparum). In words: SPR, antibody on chip. A general note: SPR reads the build-up and loss of mass on a sensor chip optically.
In the case of B1, the Kd is 2590 nM and 2910 nM.
Regarding B2, the dissociation constant Kd was 2350 nM.
For B3, the dissociation constant (Kd) worked out at 4790 nM.
For the molecule B4, the Kd was 11600 nM.
For B5, the Kd was found to be 4000 nM.
Take B6: the dissociation constant (Kd) was found to be 13800 nM.
Molecule B8 came in with a dissociation constant (Kd) of 12600 nM.
Regarding B9, the Kd came to 3890 nM.
Molecule B10 came in with a dissociation constant (Kd) of 6250 nM.
B11 registered a Kd of 3920 nM.
On to B12, for which the Kd was 4870 nM.
The molecule B13 came in with a dissociation constant (Kd) of 19500 nM.
Same read-out and setting: the value for B14 was 17500 nM; that for B15 was 2590 nM; that for B16 was 32400 nM.
Turning to B17, the Kd worked out at 6540 nM.
Molecule B18 registered a Kd of 2570 nM.

The target in the next test is (NANP)6 (Plasmodium falciparum). The experiment in a line: SPR, antibody on chip.
With B1, the Kd is 1.75 nM and 0.817 nM.
Take B2: the Kd worked out at 0.166 nM.
B3: the Kd was 0.177 nM.
Molecule B4 returned an equilibrium dissociation constant (Kd) of 0.0786 nM.
The same measure, in the same setting: then B5, with 0.0657 nM; and B6, with 0.0376 nM.
For B7, the equilibrium dissociation constant (Kd) was found to be 0.104 nM.
On to B8, for which the dissociation constant Kd amounted to 0.238 nM.
Molecule B9 showed a Kd of 0.194 nM.
In turn, B10 displayed a dissociation constant Kd of 0.338 nM.
For B11, the Kd is 0.665 nM.
Molecule B12 returned an equilibrium dissociation constant (Kd) of 0.433 nM.
In turn, B13 registered an equilibrium dissociation constant (Kd) of 0.871 nM.
B14 displayed a Kd of 0.266 nM.
The same measure, in the same setting: the value for B15 was 0.0384 nM; that for B16 was 1.56 nM.
Still for that read-out and setting: the value for B17 was 1.96 nM.
With B18, the Kd was 0.0537 nM.

For the next test, the target named is (NPNA)3 (Plasmodium falciparum). The experiment in a line: SPR, antibody on chip.
With B1, the Kd was 4.91 nM and 11.2 nM.
B2 gave a Kd of 5.37 nM.
As to B3, the equilibrium dissociation constant (Kd) is 11.3 nM.
For the molecule B4, the dissociation constant (Kd) turned out to be 80.3 nM.
Turning to B5, the Kd came out at 6.69 nM.
B6 gave a Kd of 73.9 nM.
Turning to B7, the equilibrium dissociation constant (Kd) worked out at 62 nM.
Consider B8, for which the Kd amounted to 125 nM.
The same measure, in the same setting: the value for B9 was 14.1 nM; that for B10 was 10 nM.
B11: the Kd turned out to be 8.94 nM.
B12 displayed a dissociation constant (Kd) of 10.2 nM.
Take B13: the Kd came to 72 nM.
In the case of B14, the Kd worked out at 174 nM.
On the same count and under the same terms, then B15, with 8.02 nM; and B16, with 111 nM.
The same measure, in the same setting: the value for B17 was 13.6 nM; that for B18 was 6.88 nM.
